The assay has as its target T1, TNFR1 (Homo sapiens, UniProt P19438).
T1 chain: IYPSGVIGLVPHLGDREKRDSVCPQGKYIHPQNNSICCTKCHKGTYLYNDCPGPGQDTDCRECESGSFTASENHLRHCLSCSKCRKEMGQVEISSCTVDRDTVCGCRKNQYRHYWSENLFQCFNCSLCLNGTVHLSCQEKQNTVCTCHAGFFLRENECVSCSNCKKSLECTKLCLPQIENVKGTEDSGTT
In words: yeast display SC50.

The text below walks through data of PMC12416549 (2024).

B1: R61S (designed binder)
chain: MTLQELLREEALRRAEAEAFRYALELLAEKFPEQKEYLLDLAEEIESQIRSLSGVDVEDVSKFLDKEWAWVKELLAEHPAELAEVEAARAARLAELRAEVEAKVAA
In the case of B1, the “apparent Kd (screen)” value was 790 pM.

B2: E10R (designed binder)
chain: MTLQELLRERALRRAEAEAFRYALELLAEKFPEQKEYLLDLAEEIESQIRSLSGVDVEDVRKFLDKEWAWVKELLAEHPAELAEVEAARAARLAELRAEVEAKVAA
For the molecule B2, the “apparent Kd (screen)” value is 10400 pM.

B3: A106Q (designed binder)
chain: MTLQELLREEALRRAEAEAFRYALELLAEKFPEQKEYLLDLAEEIESQIRSLSGVDVEDVRKFLDKEWAWVKELLAEHPAELAEVEAARAARLAELRAEVEAKVAQ
Take B3: the “apparent Kd (screen)” value was 142 pM.

B4: A42K (designed binder)
chain: MTLQELLREEALRRAEAEAFRYALELLAEKFPEQKEYLLDLKEEIESQIRSLSGVDVEDVRKFLDKEWAWVKELLAEHPAELAEVEAARAARLAELRAEVEAKVAA
Consider B4, for which the “apparent Kd (screen)” value came out at 3990 pM.

B5: L6D (designed binder)
chain: MTLQEDLREEALRRAEAEAFRYALELLAEKFPEQKEYLLDLAEEIESQIRSLSGVDVEDVRKFLDKEWAWVKELLAEHPAELAEVEAARAARLAELRAEVEAKVAA
Regarding B5, the “apparent Kd (screen)” value amounted to 1270 pM.

B6: I45K (designed binder)
chain: MTLQELLREEALRRAEAEAFRYALELLAEKFPEQKEYLLDLAEEKESQIRSLSGVDVEDVRKFLDKEWAWVKELLAEHPAELAEVEAARAARLAELRAEVEAKVAA
With B6, the “apparent Kd (screen)” value stood at 3990 pM.

B7: A19H (designed binder)
chain: MTLQELLREEALRRAEAEHFRYALELLAEKFPEQKEYLLDLAEEIESQIRSLSGVDVEDVRKFLDKEWAWVKELLAEHPAELAEVEAARAARLAELRAEVEAKVAA
For B7, the “apparent Kd (screen)” value was 718 pM.

B8: R50Q (designed binder)
chain: MTLQELLREEALRRAEAEAFRYALELLAEKFPEQKEYLLDLAEEIESQIQSLSGVDVEDVRKFLDKEWAWVKELLAEHPAELAEVEAARAARLAELRAEVEAKVAA
As to B8, the “apparent Kd (screen)” value was 490 pM.

B9: K72L (designed binder)
chain: MTLQELLREEALRRAEAEAFRYALELLAEKFPEQKEYLLDLAEEIESQIRSLSGVDVEDVRKFLDKEWAWVLELLAEHPAELAEVEAARAARLAELRAEVEAKVAA
On to B9, for which the “apparent Kd (screen)” value came to 790 pM.

B10: A42N (designed binder)
chain: MTLQELLREEALRRAEAEAFRYALELLAEKFPEQKEYLLDLNEEIESQIRSLSGVDVEDVRKFLDKEWAWVKELLAEHPAELAEVEAARAARLAELRAEVEAKVAA
For B10, the “apparent Kd (screen)” value was 869 pM.

B11: D56E (designed binder)
chain: MTLQELLREEALRRAEAEAFRYALELLAEKFPEQKEYLLDLAEEIESQIRSLSGVEVEDVRKFLDKEWAWVKELLAEHPAELAEVEAARAARLAELRAEVEAKVAA
For B11, the “apparent Kd (screen)” value amounted to 593 pM.

B12: P79W (designed binder)
chain: MTLQELLREEALRRAEAEAFRYALELLAEKFPEQKEYLLDLAEEIESQIRSLSGVDVEDVRKFLDKEWAWVKELLAEHWAELAEVEAARAARLAELRAEVEAKVAA
B12: the “apparent Kd (screen)” value stood at 490 pM.

B13: P79E (designed binder)
chain: MTLQELLREEALRRAEAEAFRYALELLAEKFPEQKEYLLDLAEEIESQIRSLSGVDVEDVRKFLDKEWAWVKELLAEHEAELAEVEAARAARLAELRAEVEAKVAA
For B13, the “apparent Kd (screen)” value came to 446 pM.

B14: D40I (designed binder)
chain: MTLQELLREEALRRAEAEAFRYALELLAEKFPEQKEYLLILAEEIESQIRSLSGVDVEDVRKFLDKEWAWVKELLAEHPAELAEVEAARAARLAELRAEVEAKVAA
B14: the “apparent Kd (screen)” value was found to be 13800 pM.

B15: A83N (designed binder)
chain: MTLQELLREEALRRAEAEAFRYALELLAEKFPEQKEYLLDLAEEIESQIRSLSGVDVEDVRKFLDKEWAWVKELLAEHPAELNEVEAARAARLAELRAEVEAKVAA
On to B15, for which the “apparent Kd (screen)” value was 653 pM.

B16: L64I (designed binder)
chain: MTLQELLREEALRRAEAEAFRYALELLAEKFPEQKEYLLDLAEEIESQIRSLSGVDVEDVRKFIDKEWAWVKELLAEHPAELAEVEAARAARLAELRAEVEAKVAA
B16: the “apparent Kd (screen)” value is 1160 pM.

B17: Y37Q (designed binder)
chain: MTLQELLREEALRRAEAEAFRYALELLAEKFPEQKEQLLDLAEEIESQIRSLSGVDVEDVRKFLDKEWAWVKELLAEHPAELAEVEAARAARLAELRAEVEAKVAA
With B17, the “apparent Kd (screen)” value came to 8560 pM.

B18: L96N (designed binder)
chain: MTLQELLREEALRRAEAEAFRYALELLAEKFPEQKEYLLDLAEEIESQIRSLSGVDVEDVRKFLDKEWAWVKELLAEHPAELAEVEAARAARLAENRAEVEAKVAA
On to B18, for which the “apparent Kd (screen)” value came to 446 pM.

B19: A98I (designed binder)
chain: MTLQELLREEALRRAEAEAFRYALELLAEKFPEQKEYLLDLAEEIESQIRSLSGVDVEDVRKFLDKEWAWVKELLAEHPAELAEVEAARAARLAELRIEVEAKVAA
With B19, the “apparent Kd (screen)” value turned out to be 653 pM.

B20: L7K (designed binder)
chain: MTLQELKREEALRRAEAEAFRYALELLAEKFPEQKEYLLDLAEEIESQIRSLSGVDVEDVRKFLDKEWAWVKELLAEHPAELAEVEAARAARLAELRAEVEAKVAA
B20: the “apparent Kd (screen)” value is 16700 pM.

B21: L38E (designed binder)
chain: MTLQELLREEALRRAEAEAFRYALELLAEKFPEQKEYELDLAEEIESQIRSLSGVDVEDVRKFLDKEWAWVKELLAEHPAELAEVEAARAARLAELRAEVEAKVAA
In the case of B21, the “apparent Kd (screen)” value was 10400 pM.

B22: L39V (designed binder)
chain: MTLQELLREEALRRAEAEAFRYALELLAEKFPEQKEYLVDLAEEIESQIRSLSGVDVEDVRKFLDKEWAWVKELLAEHPAELAEVEAARAARLAELRAEVEAKVAA
For B22, the “apparent Kd (screen)” value stood at 653 pM.

B23: L74K (designed binder)
chain: MTLQELLREEALRRAEAEAFRYALELLAEKFPEQKEYLLDLAEEIESQIRSLSGVDVEDVRKFLDKEWAWVKEKLAEHPAELAEVEAARAARLAELRAEVEAKVAA
In the case of B23, the “apparent Kd (screen)” value worked out at 13800 pM.

B24: S51E (designed binder)
chain: MTLQELLREEALRRAEAEAFRYALELLAEKFPEQKEYLLDLAEEIESQIRELSGVDVEDVRKFLDKEWAWVKELLAEHPAELAEVEAARAARLAELRAEVEAKVAA
For the molecule B24, the “apparent Kd (screen)” value was 2050 pM.

B25: L24T (designed binder)
chain: MTLQELLREEALRRAEAEAFRYATELLAEKFPEQKEYLLDLAEEIESQIRSLSGVDVEDVRKFLDKEWAWVKELLAEHPAELAEVEAARAARLAELRAEVEAKVAA
Turning to B25, the “apparent Kd (screen)” value was 446 pM.

B26: L41P (designed binder)
chain: MTLQELLREEALRRAEAEAFRYALELLAEKFPEQKEYLLDPAEEIESQIRSLSGVDVEDVRKFLDKEWAWVKELLAEHPAELAEVEAARAARLAELRAEVEAKVAA
Turning to B26, the “apparent Kd (screen)” value was 1270 pM.

B27: A83R (designed binder)
chain: MTLQELLREEALRRAEAEAFRYALELLAEKFPEQKEYLLDLAEEIESQIRSLSGVDVEDVRKFLDKEWAWVKELLAEHPAELREVEAARAARLAELRAEVEAKVAA
On to B27, for which the “apparent Kd (screen)” value was 490 pM.

B28: A94D (designed binder)
chain: MTLQELLREEALRRAEAEAFRYALELLAEKFPEQKEYLLDLAEEIESQIRSLSGVDVEDVRKFLDKEWAWVKELLAEHPAELAEVEAARAARLDELRAEVEAKVAA
Regarding B28, the “apparent Kd (screen)” value was 593 pM.

B29: V57Q (designed binder)
chain: MTLQELLREEALRRAEAEAFRYALELLAEKFPEQKEYLLDLAEEIESQIRSLSGVDQEDVRKFLDKEWAWVKELLAEHPAELAEVEAARAARLAELRAEVEAKVAA
For the molecule B29, the “apparent Kd (screen)” value stood at 869 pM.

B30: A19W (designed binder)
chain: MTLQELLREEALRRAEAEWFRYALELLAEKFPEQKEYLLDLAEEIESQIRSLSGVDVEDVRKFLDKEWAWVKELLAEHPAELAEVEAARAARLAELRAEVEAKVAA
For B30, the “apparent Kd (screen)” value came out at 9410 pM.

B31: P79F (designed binder)
chain: MTLQELLREEALRRAEAEAFRYALELLAEKFPEQKEYLLDLAEEIESQIRSLSGVDVEDVRKFLDKEWAWVKELLAEHFAELAEVEAARAARLAELRAEVEAKVAA
For the molecule B31, the “apparent Kd (screen)” value came to 653 pM.

B32: V60D (designed binder)
chain: MTLQELLREEALRRAEAEAFRYALELLAEKFPEQKEYLLDLAEEIESQIRSLSGVDVEDDRKFLDKEWAWVKELLAEHPAELAEVEAARAARLAELRAEVEAKVAA
With B32, the “apparent Kd (screen)” value amounted to 1050 pM.

B33: E25L (designed binder)
chain: MTLQELLREEALRRAEAEAFRYALLLLAEKFPEQKEYLLDLAEEIESQIRSLSGVDVEDVRKFLDKEWAWVKELLAEHPAELAEVEAARAARLAELRAEVEAKVAA
In the case of B33, the “apparent Kd (screen)” value was found to be 539 pM.

B34: A69V (designed binder)
chain: MTLQELLREEALRRAEAEAFRYALELLAEKFPEQKEYLLDLAEEIESQIRSLSGVDVEDVRKFLDKEWVWVKELLAEHPAELAEVEAARAARLAELRAEVEAKVAA
As to B34, the “apparent Kd (screen)” value was determined as 653 pM.
